The data set deals with the molecule itself. In words: […]; 20 mM sodium phosphate pH 7, 100 mM NaCl, 2 mM TCEP.

B1: human tripartite motif-containing protein 25 (TRIM25), residues 183-380 (domain or fragment, UniProt Q14258 183-380, looked up)
chain: HKTCSPASLSQASADLEATLRHKLTVMYSQINGASRALDDVRNRQQDVRMTANRKVEQLQQEYTEMKALLDASETTSTRKIKEEEKRVNSKFDTIYQILLKKKSEIQTLKEEIEQSLTKRDEFEFLEKASKLRGISTKPVYIPEVELNHKLIKGIHQSTIDLKNELKQCIGRLQEPTPSSGDPGEHDPASTHKSTRPV
notes: not shown: His6, N-terminal, cleaved; SUMO, N-terminal, cleaved
In the case of B1, the stoichiometry N (usually the number of molecules, sites or subunits per partner or assembly) turned out to be 2.

The values are drawn from article PMC12242641 (ACS Omega, 2025).
